Where no end group is shown, it is not given here. [ ]: non-standard residue; d: D form. pS = N[C@@H](COP(=O)(O)O)C(=O)O
molecular target: T1, HLA-A*02:01 (human); test: UV peptide-exchange ELISA
T1 construct: MHC class I monomer of the UV-ligand exchange assay; also called peptide-receptive MHC molecules; MHC class I
Description: Candidate peptides for T cell based therapies according to the present invention were further tested for their MHC binding capacity (affinity). The individual peptide-MHC complexes were produced by UV-ligand exchange, where a UV-sensitive peptide is cleaved upon UV-irradiation, and exchanged with the peptide of interest as analyzed. Only peptide candidates that can effectively bind and stabilize the peptide-receptive MHC molecules prevent dissociation of the MHC complexes. To determine the yield of the exchange reaction, an ELISA was performed based on the detection of the light chain (β2m) of stabilized MHC complexes. The assay was performed as generally described in Rodenko et al. (Rodenko et al., 2006).
96 well MAXISorp plates (NUNC) were coated over night with 2 ug/ml streptavidin in PBS at room temperature, washed 4× and blocked forl h at 37° C. in 2% BSA containing blocking buffer. Refolded HLA-A*02:01/MLA-001 monomers served as standards, covering the range of 15-500 ng/ml. Peptide-MHC monomers of the UV-exchange reaction were diluted 100 fold in blocking buffer. Samples were incubated for 1 h at 37° C., washed four times, incubated with 2 ug/ml HRP conjugated anti-β2m for 1 h at 37° C., washed again and detected with TMB solution that is stopped with […]. Absorption was measured at 450 nm. Candidate peptides that show a high exchange yield (preferably higher than 50%, most preferred higher than 75%) are generally preferred for a generation and production of antibodies or fragments thereof, and/or T cell receptors or fragments thereof, as they show sufficient avidity to the MHC molecules and prevent dissociation of the MHC complexes.

peptide exchange yield [%] | Binder
50 to 75 | VIYTLIHYI
50 to 75 | LLIPVVPGV
20 to 50 | LLLAEAELLTL
50 to 75 | LLLEETEKQAV
50 to 75 | LLPTAPTTV
50 to 75 | LLPEGGITAI
50 to 75 | LLILENILL
50 to 75 | VLPAEFFEV
50 to 75 | LLIGATMQV
≥ 75 | RLYEITIEV
50 to 75 | LLLEIGEVGKLFV
50 to 75 | RLLILENILL

Further lines, the binder ahead of its results:

Binder | peptide exchange yield [%]
ILYNLYDLL | 50 to 75
ALFTF[pS]PLTV [ALFTFJPLTV] | 50 to 75
AIPPSFASIFL | 50 to 75
KVPAEEVLVAV | 50 to 75
LLFDHLEPMEL | 50 to 75
KLGGTPAPA | 20 to 50
KLWEGLTELV | 50 to 75
ALGEDEITL | 50 to 75
KTLDVDATYEI | 50 to 75
KLILLDTPLFL | 50 to 75
KLWNVAAPLYL | 50 to 75
AIDAALTSV | 50 to 75
LLFDKLYLL | 50 to 75
IQDRAVPSL | 20 to 50
KLMNDIADI | 20 to 50
FVYGESVEL | 50 to 75
LIPEGPPQV | 50 to 75
FMASHLDYL | 50 to 75
